Four molecules from PMC8809517, “Cofactor-independent RNA editing by a synthetic S-type PPR protein” can be followed below.

Where a chain is given by its changes, count along the chain named.

Common to all, as to experiment: high-throughput RNA pulldown from lysate on Ni-NTA beads; HRP: 50 mM Tris pH 8, 150 mM NaCl, 1 mM beta-mercaptoethanol, 50 ug/ml BSA, 3 ug/ml yeast RNA, 0.5% heparin; ITC and FP: Tris pH 8, 200 mM KCl, 5% glycerol; MST: 50 mM Tris pH 8, 200 mM NaCl, 1 mM DTT, BSA, heparin, 0.05% Tween 20
Common to all, as to conditions: tags: N-terminal His-eGFP

In series [1] the target is T1, GFP-9S library array, motif 4 ND N98Y;D124Q (synthetic construct, N98Y;D124Q).
T1 chain: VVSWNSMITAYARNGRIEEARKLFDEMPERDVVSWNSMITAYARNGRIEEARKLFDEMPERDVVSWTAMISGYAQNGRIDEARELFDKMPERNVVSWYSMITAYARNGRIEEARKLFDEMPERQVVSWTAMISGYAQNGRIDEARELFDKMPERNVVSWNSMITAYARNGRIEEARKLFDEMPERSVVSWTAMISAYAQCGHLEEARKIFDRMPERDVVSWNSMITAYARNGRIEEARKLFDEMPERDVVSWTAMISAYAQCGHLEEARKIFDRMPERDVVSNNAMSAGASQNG

Series [2] addresses T2, GFP-9S library array, motif 4 ND N98F;D124Q (synthetic construct, N98F;D124Q).
T2 chain: T1 chain with Y98F

Series [3] deals with T3, GFP-9S library array, motif 4 ND N98R;D124A (synthetic construct, N98R;D124A).
T3 chain: T1 chain with Y98R, Q124A

For series [4], the target named is T4, GFP-9S library array, motif 4 ND N98K;D124I (synthetic construct, N98K;D124I).
T4 chain: T1 chain with Y98K, Q124I

Series [5] addresses T5, GFP-9S library array, motif 4 ND N98M;D124Y (synthetic construct, N98M;D124Y).
T5 chain: T1 chain with Y98M, Q124Y

B1: IR-rpoA-A (ssRNA)
RNA: AUUAAACGUGA
What is called Kd is the constant that tells how readily two partners part at equilibrium. Read a high Kd as weaker binding. Regarding B1, the Kd in series [1] (label: 5' IRDye 800CW) is 162 nM; in series [2] (label: 5' IRDye 800CW), 419 nM; in series [3] (label: 5' IRDye 800CW), 145 nM; in series [4] (label: 5' IRDye 800CW) it was 560 nM; in series [5] (label: 5' IRDye 800CW) it was 488 nM.

B2: Cy5-rpoA-G (ssRNA)
RNA: AUUAGACGUGA
With B2, the dissociation constant (Kd) in series [1] (label: 5' Cy5) came to 49.8 nM; in series [2] (label: 5' Cy5) it was 143 nM; in series [3] (label: 5' Cy5), 89.4 nM; in series [4] (label: 5' Cy5), 167 nM; in series [5] (label: 5' Cy5), 167 nM.

B3: Cy5-rpoA (ssRNA)
RNA: AUUACACGUGA
Take B3: the Kd in series [1] (label: 5' Cy5) came out at 39.5 nM; in series [2] (label: 5' Cy5), 158 nM; in series [3] (label: 5' Cy5) it was 75.1 nM; in series [4] (label: 5' Cy5), 130 nM; in series [5] (label: 5' Cy5), 216 nM.

B4: IR-rpoA-U (ssRNA)
RNA: AUUAUACGUGA
On to B4, for which the Kd in series [1] (label: 5' IRDye 800CW) turned out to be 103 nM; in series [2] (label: 5' IRDye 800CW), 466 nM; in series [3] (label: 5' IRDye 800CW), 114 nM; in series [4] (label: 5' IRDye 800CW) it was 252 nM; in series [5] (label: 5' IRDye 800CW), 682 nM.
